Laboratory results reported in patent US7135170B2 (ZymoGenetics, Inc., priority 2002, dated 2006).

How the values were obtained:
zcyto24 = biological target: T1, zcyto24 (Mus musculus, UniProt Q4VK74); experiment: Soluble receptor inhibition of ligand-induced ISRE signaling, 293 HEK cells overexpressing zcytor19: zcyto24; type: cell-based; details: ligand Zcyto24 10 ng/ml; soluble receptor 10 micrograms/ml; 4-hour
T1 construct: The mature polypeptide comprises amino acid residue 29 (Asp) to amino acid residue 202 (Val)
T1 sequence (Q4VK74 20-193): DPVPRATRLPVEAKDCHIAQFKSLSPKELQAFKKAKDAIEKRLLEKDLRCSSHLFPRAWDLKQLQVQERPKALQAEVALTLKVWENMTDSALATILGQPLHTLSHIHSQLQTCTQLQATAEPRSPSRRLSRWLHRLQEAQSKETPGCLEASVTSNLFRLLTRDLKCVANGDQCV
Excerpt: (§1) A signal transduction reporter assay can be used to show the inhibitor properties of zcytor19-Fc4 homodimeric and zcytor19-Fc/CRF2-4-Fc heterodimeric soluble receptors on zcyto20, zcyto21and zcyto24 signaling. Human embryonal kidney (HEK) cells overexpressing the zcytor19 receptor are transfected with a reporter plasmid containing an interferon-stimulated response element (ISRE) driving transcription of a luciferase reporter gene. Luciferase activity following stimulation of transfected cells with ligands (including zcyto20 (SEQ ID NO:18), zcyto21 (SEQ ID NO:20), zcyto24 (SEQ ID NO:8)) reflects the interaction of the ligand with soluble receptor.
(§2) 293 HEK cells overexpressing zcytor19 were transfected as follows: 700,000 293 cells/well (6 well plates) were plated approximately 18 h prior to transfection in 2 milliliters DMEM+10% fetal bovine serum. Per well, 1 microgram pISRE-Luciferase DNA (Stratagene) and 1 microgram pIRES2-EGFP DNA (Clontech,) were added to 6 microliters Fugene 6 reagent (Roche Biochemicals) in a total of 100 microliters DMEM. This transfection mix was added 30 minutes later to the pre-plated 293 cells. Twenty-four hours later the transfected cells were removed from the plate using trypsin-EDTA and replated at approximately 25,000 cells/well in 96 well microtiter plates. Approximately 18 h prior to ligand stimulation, media was changed to DMEM+0.5% FBS.
(§3) The signal transduction reporter assays were done as follows: Following an 18 h incubation at 37° C. in DMEM+0.5% FBS, transfected cells were stimulated with 10 ng/ml zcyto20, zcyto2l or zcyto24 and 10 micrograms/ml of the following soluble receptors; human zcytor19-Fc homodimer, human zcytor19-Fc/human CRF2-4-Fc heterodimer, human CRF2-4-Fc homodimer, murine zcytor19-Ig homodimer. Following a 4-hour incubation at 37° C., the cells were lysed, and the relative light units (RLU) were measured on a luminometer after addition of a luciferase substrate. The results obtained are shown as the percent inhibition of ligand-induced signaling in the presence of soluble receptor relative to the signaling in the presence of PBS alone.

zcyto20 = biological target: T2, zcyto20 (Homo sapiens, UniProt Q8IZJ0); experiment: Soluble receptor inhibition of ligand-induced ISRE signaling, 293 HEK cells overexpressing zcytor19: zcyto20; type: cell-based; details: for Percent Inhibition of Ligand-induced ISRE Signaling by Soluble Receptors: ligand Zcyto20 10 ng/ml, soluble receptor 10 micrograms/ml, 4-hour; for inhibition of zcyto20, zcyto21 and zcyto24-induced signaling: text summary over the three ligands
T2 sequence (Q8IZJ0 26-200): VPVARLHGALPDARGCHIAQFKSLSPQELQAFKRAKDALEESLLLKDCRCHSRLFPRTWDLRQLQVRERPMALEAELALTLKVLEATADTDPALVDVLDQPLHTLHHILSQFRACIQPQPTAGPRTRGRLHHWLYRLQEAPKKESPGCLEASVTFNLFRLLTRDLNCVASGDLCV
Excerpt: as §1, §2, §3

zcyto21 = zcyto21 (Homo sapiens, UniProt Q8IU54); experiment: Soluble receptor inhibition of ligand-induced ISRE signaling, 293 HEK cells overexpressing zcytor19: zcyto21; type: cell-based; details: ligand Zcyto21 10 ng/ml; soluble receptor 10 micrograms/ml; 4-hour
Excerpt: as §1, §2, §3

[1] = test system: ISG gene expression (OAS, Pkr, Mx1) in liver, spleen and blood; experiment: ISG gene expression in liver, spleen and blood of injected mice (real-time PCR); type: in vivo, mouse; details: liver, 100 μg i.v.; for PKR: mice (Naive 3.70); for OAS: mice (Naive 6.60); for Mx1: mice (Naive 10.98)
Experimental: Mice were sacrificed at various time points (1 hr-48 hr). Spleens and livers were isolated from mice, and RNA was isolated. RNA was also isolated from the blood cells. The cells were pelleted and RNA isolated from pellets using RNAEasy®-kit (Qiagen). RNA was treated with DNase (Amicon) to rid RNA of any contaminating DNA. cDNA was generated using Perkin-Elmer RT mix (Perkin-Elmer). ISG gene induction was measured by real-time PCR using primers and probes specific for mouse OAS, Pkr and Mx1. To obtain quantitative data, HPRT real-time PCR was duplexed with ISG PCR. A standard curve was calculated using known amounts of IFN-stimulated mouse PBLs. All data are shown as expression relative to internal HPRT expression.
Results shown are fold expression relative to HPRT gene expression. […] The data shown is the average expression from 5 different animals/group.
Mice were injected with 100 μg of proteins i.v. Data shown is fold expression over HPRT expression from livers of mice. Similar data was obtained from blood and spleens of mice.

**Q.** Which results are given for “HuCRF2-4-Fc: human CRF2-4-Fc homodimeric soluble receptor”?
**A.** Percent Inhibition of Ligand-induced ISRE Signaling by Soluble Receptors (zcyto24): 82%; Percent Inhibition of Ligand-induced ISRE Signaling by Soluble Receptors (zcyto20): 80%; inhibition of zcyto20, zcyto21 and zcyto24-induced signaling (zcyto20): No significant effects; Percent Inhibition of Ligand-induced ISRE Signaling by Soluble Receptors (zcyto21): 79%

**Q.** What does the source list for “Huzcytor19-Fc/huCRF2-4-Fc: human zcytor19-Fc/human CRF2-4-Fc heterodimeric soluble receptor”?
**A.** Percent Inhibition of Ligand-induced ISRE Signaling by Soluble Receptors (zcyto24): 47%; Percent Inhibition of Ligand-induced ISRE Signaling by Soluble Receptors (zcyto20): 16%; Percent Inhibition of Ligand-induced ISRE Signaling by Soluble Receptors (zcyto21): 16%

B1: Huzcytor19-Fc: human zcytor19-Fc homodimeric soluble receptor (protein)
chain: RPRLAPPQNVTLLSQNFSVYLTWLPGLGNPQDVTYFVAYQSSPTRRRWREVEECAGTKELLCSMMCLKKQDLYNKFKGRVRTVSPSSKSPWVESEYLDYLFEVEPAPPVLVLTQTEEILSANATYQLPPCMPPLDLKYEVAFWKEGAGNKTLFPVTPHGQPVQITLQPAASEHHCLSARTIYTFSVPKYSKFSKPTCFLLEVPEAN
modifications: left off: a dimerising Fc or GST
notes: human zcytor19-Fc homodimeric soluble receptor
**Q.** What does the source list for B1?
**A.** Percent Inhibition of Ligand-induced ISRE Signaling by Soluble Receptors (zcyto24): 90%; Percent Inhibition of Ligand-induced ISRE Signaling by Soluble Receptors (zcyto20): 92%; Percent Inhibition of Ligand-induced ISRE Signaling by Soluble Receptors (zcyto21): 45%

B2: MetIL-29-PEG: E. coli derived IL-29 with N-terminal Met, conjugated to PEG (conjugate, UniProt Q8IU54 20-200, looked up)
Interferon lambda-1: GPVPTSKPTTTGKGCHIGRFKSLSPQELASFKKARDALEESLKLKNWSCSSPVFPGNWDLRLLQVRERPVALEAELALTLKVLEAAAGPALEDVLDQPLHTLHHILSQLQACIQPQPTAGPRPRGRLHHWLHRLQEAPKKESAGCLEASVTFNLFRLLTRDLKYVADGNLCLRTSTHPEST
modifications: N-terminal Met; PEG
notes: E. coli derived IL-29 with N-terminal Met, conjugated to PEG
**Q.** Which PKR ([1]; 3 hr) does the source give for B2 here?
**A.** 18.24 fold expression over HPRT expression

**Q.** What about the OAS ([1]; 3 hr) of the same molecule?
**A.** 91.29 fold expression over HPRT expression

**Q.** And the Mx1 ([1]; 3 hr)?
**A.** 537.51 fold expression over HPRT expression

**Q.** And the PKR ([1]; 6 hr)?
**A.** 13.93 fold expression over HPRT expression

**Q.** What about the OAS ([1]; 6 hr) of the same molecule?
**A.** 65.93 fold expression over HPRT expression

**Q.** And the Mx1 ([1]; 6 hr)?
**A.** 124.99 fold expression over HPRT expression

**Q.** And the PKR ([1]; 12 hr)?
**A.** 4.99 fold expression over HPRT expression

**Q.** What about the OAS ([1]; 12 hr) of the same molecule?
**A.** 54.04 fold expression over HPRT expression

**Q.** And the Mx1 ([1]; 12 hr)?
**A.** 33.58 fold expression over HPRT expression

**Q.** And the PKR ([1]; 24 hr)?
**A.** 3.77 fold expression over HPRT expression

**Q.** And the OAS ([1]; 24 hr)?
**A.** 20.81 fold expression over HPRT expression

**Q.** What about the Mx1 ([1]; 24 hr) of the same molecule?
**A.** 35.82 fold expression over HPRT expression

B3: Muzcytor19-Ig: murine zcytor19-Ig homodimeric soluble receptor (protein)
chain: RPRLAPPRNVTLFSQNFTVYLTWLPGLGSPPNVTYFVTYQSYIKTGWRPVEHCAGIKALVCPLMCLKKLNLYSKFKGRVQAASAHGRSPRVESRYLEYLFDVELAPPTLVLTQMEKILRVNATYQLPPCMPSLELKYQVEFWKEGLGSKTLFPDTPYGQPVQIPLQQGASRRHCLSARTVYTLIDIKYSQFSEPSCIFLEAPGDKRA
modifications: left off: small tags and cut ends
notes: murine zcytor19-Ig homodimeric soluble receptor
**Q.** What does the source list for B3?
**A.** Percent Inhibition of Ligand-induced ISRE Signaling by Soluble Receptors (zcyto24): 89%; Percent Inhibition of Ligand-induced ISRE Signaling by Soluble Receptors (zcyto20): 91%; inhibition of zcyto20, zcyto21 and zcyto24-induced signaling (zcyto20): No significant effects; Percent Inhibition of Ligand-induced ISRE Signaling by Soluble Receptors (zcyto21): 103%
